In patent publication US20210301295A1:

Biological target: 6×His tag-AVI tag-DPP4 fusion protein, site-directed biotinylated and labeled with color latex throu (human), P27487
Settings: remark: other sources report otherwise

B1: Recombinant S1 protein of MERS-CoV, K9N5Q8 18-725 (ligand)
chain: YVDVGPDSVKSACIEVDIQQTFFDKTWPRPIDVSKADGIIYPQGRTYSNITITYQGLFPYQGDHGDMYVYSAGHATGTTPQKLFVANYSQDVKQFANGFVVRIGAAANSTGTVIISPSTSATIRKIYPAFMLGSSVGNFSDGKMGRFFNHTLVLLPDGCGTLLRAFYCILEPRSGNHCPAGNSYTSFATYHTPATDCSDGNYNRNASLNSFKEYFNLRNCTFMYTYNITEDEILEWFGITQTAQGVHLFSSRYVDLYGGNMFQFATLPVYDTIKYYSIIPHSIRSIQSDRKAWAAFYVYKLQPLTFLLDFSVDGYIRRAIDCGFNDLSQLHCSYESFDVESGVYSVSSFEAKPSGSVVEQAEGVECDFSPLLSGTPPQVYNFKRLVFTNCNYNLTKLLSLFSVNDFTCSQISPAAIASNCYSSLILDYFSYPLSMKSDLSVSSAGPISQFNYKQSFSNPTCLILATVPHNLTTITKPLKYSYINKCSRFLSDDRTEVPQLVNANQYSPCVSIVPSTVWEDGDYYRKQLSPLEGGGWLVASGSTVAMTEQLQMGFGITVQYGTDTNSVCPKLEFANDTKIASQLGNCVEYSLYGVSGRGVFQNCTAVGVRQQRFVYDAYQNLVGYYSDDGNYYCLRACVSVPVSVIYDKETKTHATLFGSVACEHISSTMSQYSRSTRSMLKRRDSTYGPLQTPVGCVLGLVNSSLFVE
sensitivity of the test strip (lowest positive concentration): 10 nM
